According to US20260015405A1 (TRANSGENE, published 2026):

B1: construct encoded by pTG20041: [N-terminus]-[collagen domain(12bis)]-[coiled-coil neck domain]-[CD40L] (ligand)
chain: AEMKTYSHRTMPSACTLVMCSSVESGPLGKQGNIGPQGKPGPKGEAGPKGEVGAPGMQGSADVASLRQQVEALQGQVQHLQAAFSQYKKVENPQIAAHVISEASSKTTSVLQWAEKGYYTMSNNLVTLENGKQLTVKRQGLYYIYAQVTFCSNREASSQAPFIASLCLKSPGRFERILLRAANTHSSAKPCGQQSIHLGGVFELQPGASVFVNVTDPSQVSHGTGFTSFGLLKL
notes: Tested as clarified HeLa supernatant
B2: construct encoded by pTG19966: [N-terminus]-[coiled-coil neck domain]-[CD40L] (ligand)
chain: AEMKTYSHRTMPSACTLVMCSSVESDVASLRQQVEALQGQVQHLQAAFSQYKKVENPQIAAHVISEASSKTTSVLQWAEKGYYTMSNNLVTLENGKQLTVKRQGLYYIYAQVTFCSNREASSQAPFIASLCLKSPGRFERILLRAANTHSSAKPCGQQSIHLGGVFELQPGASVFVNVTDPSQVSHGTGFTSFGLLKL
notes: Tested as clarified HeLa supernatant, oligomeric state mixed; It was detected by anti-FLAG immunoblot
B3: construct encoded by pTG20042: [N-terminus]-[collagen domain(30)]-[coiled-coil neck domain]-[CD40L] (ligand)
chain: AEMKTYSHRTMPSACTLVMCSSVESGLPGRDGRDGREGPRGEKGDPGLPGAAGQAGMPGQAGPVGPKGDNGSVGEPGPKGDTGPSGPPGPPGVPGPAGREGPLGKQGNIGPQGKPDVASLRQQVEALQGQVQHLQAAFSQYKKVENPQIAAHVISEASSKTTSVLQWAEKGYYTMSNNLVTLENGKQLTVKRQGLYYIYAQVTFCSNREASSQAPFIASLCLKSPGRFERILLRAANTHSSAKPCGQQSIHLGGVFELQPGASVFVNVTDPSQVSHGTGFTSFGLLKL
notes: as for B1
B4: construct encoded by pTG19325: fusion protein SPD (M1-G257, P35247 numbering)-CD40L (H47 to L261 from P29965 numbering) (ligand)
chain: AEMKTYSHRTMPSACTLVMCSSVESGLPGRDGRDGREGPRGEKGDPGLPGAAGQAGMPGQAGPVGPKGDNGSVGEPGPKGDTGPSGPPGPPGVPGPAGREGPLGKQGNIGPQGKPGPKGEAGPKGEVGAPGMQGSAGARGLAGPKGERGVPGERGVPGNTGAAGSAGAMGPQGSPGARGPPGLKGDKGIPGDKGAKGESGLPDVASLRQQVEALQGQVQHLQAAFSQYKKVELFPNGHRRLDKIEDERNLHEDFVFMKTIQRCNTGERSLSLLNCEEIKSQFEGFVKDIMLNKEETKKENSFEMQKGDQNPQIAAHVISEASSKTTSVLQWAEKGYYTMSNNLVTLENGKQLTVKRQGLYYIYAQVTFCSNREASSQAPFIASLCLKSPGRFERILLRAANTHSSAKPCGQQSIHLGGVFELQPGASVFVNVTDPSQVSHGTGFTSFGLLKL
notes: Tested as clarified, unpurified supernatant of infected/transfected HeLa cells; concentration unknown; The construct begins at M1 of SPD, so the entry may include the native signal peptide; The form range is that of the CD40L part
B5: construct encoded by pTG19969: [N-terminus]-[collagen domain(12)]-[coiled-coil neck domain]-[linker]-[CD40L] (ligand)
chain: AEMKTYSHRTMPSACTLVMCSSVESGQAGPVGPKGDNGSVGEPGPKGDTGPSGPPGPPGVPDVASLRQQVEALQGQVQHLQAAFSQYKKVEGGGSGGGSGGGSNPQIAAHVISEASSKTTSVLQWAEKGYYTMSNNLVTLENGKQLTVKRQGLYYIYAQVTFCSNREASSQAPFIASLCLKSPGRFERILLRAANTHSSAKPCGQQSIHLGGVFELQPGASVFVNVTDPSQVSHGTGFTSFGLLKL
B6: construct encoded by pTG20038: [N-terminus]-[collagen domain(6 + N-Gly)]-[coiled-coil neck domain]-[CD40L] (ligand)
chain: AEMKTYSHRTMPSACTLVMCSSVESGQAGPVGPKGDNGSVGEPDVASLRQQVEALQGQVQHLQAAFSQYKKVENPQIAAHVISEASSKTTSVLQWAEKGYYTMSNNLVTLENGKQLTVKRQGLYYIYAQVTFCSNREASSQAPFIASLCLKSPGRFERILLRAANTHSSAKPCGQQSIHLGGVFELQPGASVFVNVTDPSQVSHGTGFTSFGLLKL
notes: as for B1
B7: construct encoded by pTG20039: [N-terminus]-[collagen domain(6 - N-Gly)]-[coiled-coil neck domain]-[CD40L] (ligand)
chain: AEMKTYSHRTMPSACTLVMCSSVESGPKGDTGPSGPPGPPGVPDVASLRQQVEALQGQVQHLQAAFSQYKKVENPQIAAHVISEASSKTTSVLQWAEKGYYTMSNNLVTLENGKQLTVKRQGLYYIYAQVTFCSNREASSQAPFIASLCLKSPGRFERILLRAANTHSSAKPCGQQSIHLGGVFELQPGASVFVNVTDPSQVSHGTGFTSFGLLKL
notes: as for B1
B8: construct encoded by pTG19967: [N-terminus]-[coiled-coil neck domain]-[linker]-[CD40L] (ligand)
chain: AEMKTYSHRTMPSACTLVMCSSVESDVASLRQQVEALQGQVQHLQAAFSQYKKVEGGGSGGGSGGGSNPQIAAHVISEASSKTTSVLQWAEKGYYTMSNNLVTLENGKQLTVKRQGLYYIYAQVTFCSNREASSQAPFIASLCLKSPGRFERILLRAANTHSSAKPCGQQSIHLGGVFELQPGASVFVNVTDPSQVSHGTGFTSFGLLKL
B9: construct encoded by pTG19968: [N-terminus]-[collagen domain(12)]-[coiled-coil neck domain]-[CD40L] (ligand)
chain: AEMKTYSHRTMPSACTLVMCSSVESGQAGPVGPKGDNGSVGEPGPKGDTGPSGPPGPPGVPDVASLRQQVEALQGQVQHLQAAFSQYKKVENPQIAAHVISEASSKTTSVLQWAEKGYYTMSNNLVTLENGKQLTVKRQGLYYIYAQVTFCSNREASSQAPFIASLCLKSPGRFERILLRAANTHSSAKPCGQQSIHLGGVFELQPGASVFVNVTDPSQVSHGTGFTSFGLLKL

These binders were tested against T1, CD40-Fc (immobilized recombinant human CD40) (human, UniProt P25942 21-193, limits assumed) (assay: ELISA, CD40-Fc coated, HeLa supernatant, detection with non-competitive anti-CD40L).
T1 construct: Coated on the ELISA plate
T1 sequence (P25942 21-193 limits assumed): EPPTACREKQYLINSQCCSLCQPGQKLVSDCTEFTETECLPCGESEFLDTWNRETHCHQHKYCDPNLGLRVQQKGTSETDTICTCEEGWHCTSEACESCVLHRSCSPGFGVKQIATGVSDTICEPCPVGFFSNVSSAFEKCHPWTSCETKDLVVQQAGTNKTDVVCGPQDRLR
B1: binds. B2: binds. B3: binds. B4: binds. B5: binds. B6: binds. B7: binds. B8: binds. B9: binds.
